Experimental data as given in patent US20140086916A1 (Merck Sharp & Dohme, published 2014).
Read-outs that look alike come from different tables or passages of the source. One block for each binder: values may come before it.

Legend:
[1] = molecular target: T1, FcγRIIIa-V158 (Pichia pastoris produced) (UniProt P08637 17-208, limits assumed); assay: ELISA-type plate assay, FcγR coated, antibody dimerized with AP-conjugated goat anti-human IgG F(ab')2, RFU readout
T1 construct: also called FcγRIIIA LV; FcgRIIIA LV
Method: (§1) Fcγ receptor binding assays were carried out as described (Shields, et al. (2001) J. Biol. Chem. 276:6591-6604) with minor modifications. High protein binding 96-well plates (Corning Costar) were coated with 100 μL per well of Fcγ receptor solutions in PBS at the following concentrations: 1 μg/mL for both FcγRI (R&D Systems) and FcγRIIa (Pichia pastoris produced), 2 μg/mL for FcγRIIb (P. pastoris produced), 0.8 μg/mL for FcγRIIIa-F158, and 0.4 μg/mL for FcγRIIIa-V158 (both P. pastoris produced). All Pichia pastoris produced receptors were expressed and purified as described (Li, et al. (2006) Nature Biotechnology 24:210-215). Monomeric antibody samples added to the FcγRI plate were serially diluted in assay diluent (1×PBS, 1% BSA, and 0.05% Tween20) and 100 μL, per well was added to the plate. Antibody samples prepared for the remaining receptors require a one hour dimerization step with half molar ratio of goat anti-human IgG F(ab′)2 F(ab′)2 that is conjugated with alkaline phosphatase for detection. These dimerized F(ab′)2/antibody complexes were also serially diluted and 100 μL per well were added to the remaining receptor plates and all plates were incubated for one hour at room temperature. FcγRI bound sample antibody was detected using the same goat anti-human IgG F(ab′)2 alkaline phosphatase conjugated F(ab′)2. Sample antibody binding was quantified by measuring excitation at 340 nm and emission at 465 nm after 18 hour incubation with SuperPhos, 4-MUP Fluorescence AP Substrate Detection System (Virolabs).

[2] = molecular target: T2, FcγRIIIa-F158 (Pichia pastoris produced) (UniProt P08637 17-208, limits assumed); assay: fold change of the Table 12 affinities (reference row)
T2 construct: also called FcγRIIIA LF; FcgRIIIA LF
Method: as §1

FcγRIIA H = molecular target: T3, FcγRIIA H (UniProt P12318 34-217, limits assumed); assay: as above
T3 construct: also called FcgRIIA H
T3 sequence (looked up): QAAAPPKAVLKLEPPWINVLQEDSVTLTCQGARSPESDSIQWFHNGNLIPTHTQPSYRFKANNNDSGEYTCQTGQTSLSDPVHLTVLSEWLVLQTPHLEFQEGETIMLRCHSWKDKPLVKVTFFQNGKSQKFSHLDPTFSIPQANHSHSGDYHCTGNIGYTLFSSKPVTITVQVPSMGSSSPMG
Method: as §1

[3] = molecular target: T1, FcγRIIIa-V158 (Pichia pastoris produced); assay: ELISA-type plate assay, FcγR coated, antibody dimerized with AP-conjugated goat anti-human IgG F(ab')2, RFU readout; remark: listed apart in the source
Method: as §1

wild-type human PCSK9 = molecular target: T4, wild-type human PCSK9 (human, UniProt Q8NBP7 31-692, limits assumed); assay: SPR (Biacore T100), average KD of the two 1F11 runs
T4 construct: also called PCSK9 antigen
Method: The CM5 chip was immobilized on all flowcells with mouse anti-human IgG (Fc specific) according to the Biacore Human Antibody Capture Kit (Cat# BR-1008-39) to ˜7000RU. Anti-PCSK9 antibodies were captured on the chip to ˜500RU followed by analyte injections of wild-type human PCSK9 from 64.1 nM to 2.0 nM. Each flowcell was regenerated between each analyte injection with 3M MgCl for 40 seconds at 10 uL/min. Data was analyzed with Biacore T100 Evaluation Software using the 1:1 binding model using at least 5 point concentration range sensogram.

FcγRI (R&D Systems) = molecular target: T5, FcγRI (R&D Systems) (UniProt P12314 16-288); assay: ELISA-type plate assay, FcγRI coated, monomeric antibody, detected with AP-conjugated goat anti-human IgG F(ab')2, RFU readout
T5 construct: Bought reagent, coated on the plate at 1 µg/mL; also called Fc gamma receptor I; CD64
Method: as §1, with “These dimerized F(ab′)2/antibody complexes were also serially diluted and 100 μL per well were added to the remaining receptor plates and all plates were incubated for one hour at room temperature.” left out

[4] = molecular target: T1, FcγRIIIa-V158 (Pichia pastoris produced); assay: ELISA-type plate assay, FcγR coated, antibody dimerized with AP-conjugated goat anti-human IgG F(ab')2, RFU readout; remark: listed apart in the source
Method: as §1

[5] = molecular target: T1, FcγRIIIa-V158 (Pichia pastoris produced); assay: as above; remark: listed apart in the source
Method: as §1

[6] = molecular target: T2, FcγRIIIa-F158 (Pichia pastoris produced); assay: FcγR affinity assay 'as described in Example 7', n = 3; printed as Affinity (nM) ± STDEV
Method: as §1

[7] = molecular target: T1, FcγRIIIa-V158 (Pichia pastoris produced); assay: as above
Method: as §1

[8] = molecular target: T1, FcγRIIIa-V158 (Pichia pastoris produced); assay: ELISA-type plate assay, FcγR coated, antibody dimerized with AP-conjugated goat anti-human IgG F(ab')2, RFU readout; remark: listed apart in the source
Method: as §1

[9] = molecular target: T1, FcγRIIIa-V158 (Pichia pastoris produced); assay: as above; remark: listed apart in the source
Method: as §1

[10] = molecular target: T2, FcγRIIIa-F158 (Pichia pastoris produced); assay: summary of the FcγR ELISAs; Table 8 summary: range of fold decrease over the ELISA experiments
Method: as §1, with “These dimerized F(ab′)2/antibody complexes were also serially diluted and 100 μL per well were added to the remaining receptor plates and all plates were incubated for one hour at room temperature.” left out

[11] = molecular target: T1, FcγRIIIa-V158 (Pichia pastoris produced); assay: as above
Method: as §1, with “These dimerized F(ab′)2/antibody complexes were also serially diluted and 100 μL per well were added to the remaining receptor plates and all plates were incubated for one hour at room temperature.” left out

T2 sequence (P08637 17-208 limits assumed): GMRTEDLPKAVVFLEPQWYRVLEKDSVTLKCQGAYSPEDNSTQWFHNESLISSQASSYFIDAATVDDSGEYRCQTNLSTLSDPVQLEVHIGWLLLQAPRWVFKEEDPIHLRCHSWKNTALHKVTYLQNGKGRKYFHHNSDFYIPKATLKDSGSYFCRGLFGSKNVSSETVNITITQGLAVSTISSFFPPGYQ
T1 sequence (P08637 17-208 F176V limits assumed): as the sequence (P08637 17-208 limits assumed) above, with F160V counted along it
T5 sequence (P12314 16-288 limits assumed): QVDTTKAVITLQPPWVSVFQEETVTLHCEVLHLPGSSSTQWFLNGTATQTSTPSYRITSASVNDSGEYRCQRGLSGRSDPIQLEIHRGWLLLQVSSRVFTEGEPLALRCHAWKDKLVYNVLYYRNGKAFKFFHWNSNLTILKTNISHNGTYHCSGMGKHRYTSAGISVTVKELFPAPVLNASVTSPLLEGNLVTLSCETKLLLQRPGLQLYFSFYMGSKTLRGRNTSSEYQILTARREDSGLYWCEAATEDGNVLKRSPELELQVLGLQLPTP

EC50 (read off the curve) [1]: ~0.03 µg/mL | fold change in affinity vs 1F11 IgG1 GS5.0 [2]: 1 fold | fold change in affinity vs 1F11 IgG1 GS5.0 (FcγRIIA H): 1 fold | EC50 (read off the curve) [3]: ~0.04 µg/mL | Kd (wild-type human PCSK9): 2.8 nM | EC50 (read off the curve) (FcγRI (R&D Systems)): ~0.08 µg/mL | EC50 (read off the curve) [4]: ~0.05 µg/mL | EC50 (read off the curve) [5]: ~0.04 µg/mL | Kd [6]: 203 nM | Kd [7]: 0.15 nM | EC50 (read off the curve) [8]: ~0.03 µg/mL | EC50 (read off the curve) [9]: ~0.03 µg/mL
B1: 1F11 wildtype (parent) humanized anti-PCSK9 monoclonal IgG1 antibody (antibody)
heavy: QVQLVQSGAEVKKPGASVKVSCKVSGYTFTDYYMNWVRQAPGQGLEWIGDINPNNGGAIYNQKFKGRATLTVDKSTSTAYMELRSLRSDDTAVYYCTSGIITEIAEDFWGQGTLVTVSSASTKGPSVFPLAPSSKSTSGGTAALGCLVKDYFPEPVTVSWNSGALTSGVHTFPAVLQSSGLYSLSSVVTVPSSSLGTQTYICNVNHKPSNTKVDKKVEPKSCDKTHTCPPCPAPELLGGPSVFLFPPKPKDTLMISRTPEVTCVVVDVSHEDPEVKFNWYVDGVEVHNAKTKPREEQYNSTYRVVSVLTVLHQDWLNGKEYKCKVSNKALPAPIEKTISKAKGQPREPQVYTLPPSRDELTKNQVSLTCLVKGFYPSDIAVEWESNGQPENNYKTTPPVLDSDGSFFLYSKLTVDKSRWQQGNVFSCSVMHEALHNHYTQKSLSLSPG
light: DIQMTQSPSSLSASVGDRVTITCKASQNVGTNVVWYQQKPGKAPKALIHSASYRYSGVPSRFSGSGSGTDFTLTISSLQPEDFATYYCQQYKTYPYTFGQGTKVEIKRTVAAPSVFIFPPSDEQLKSGTASVVCLLNNFYPREAKVQWKVDNALQSGNSQESVTEQDSKDSTYSLSSTLTLSKADYEKHKVYACEVTHQGLSSPVTKSFNRGEC
notes: Produced in glycoengineered Pichia pastoris GFI5.0 (strain YGLY21351); also called 1F11 IgG1 GS5.0; YGLY21351

EC50 (read off the curve) [1]: ~0.2 µg/mL | EC50 (read off the curve) [3]: ~0.1 µg/mL | EC50 (read off the curve) [4]: ~0.1 µg/mL | decreased affinity fold vs wildtype parent antibody produced in GS 5.0 [10]: 8 to 60 fold | decreased affinity fold vs wildtype parent antibody produced in GS 5.0 [11]: 2 to 6 fold | EC50 (read off the curve) [5]: ~0.1 µg/mL | Kd [6]: 2520 nM | Kd [7]: 97 nM | EC50 (read off the curve) [8]: ~0.2 µg/mL | EC50 (read off the curve) [9]: ~0.1 µg/mL
B2: 1F11 IgG1 F243A/V264A double mutein anti-PCSK9 antibody (antibody)
heavy: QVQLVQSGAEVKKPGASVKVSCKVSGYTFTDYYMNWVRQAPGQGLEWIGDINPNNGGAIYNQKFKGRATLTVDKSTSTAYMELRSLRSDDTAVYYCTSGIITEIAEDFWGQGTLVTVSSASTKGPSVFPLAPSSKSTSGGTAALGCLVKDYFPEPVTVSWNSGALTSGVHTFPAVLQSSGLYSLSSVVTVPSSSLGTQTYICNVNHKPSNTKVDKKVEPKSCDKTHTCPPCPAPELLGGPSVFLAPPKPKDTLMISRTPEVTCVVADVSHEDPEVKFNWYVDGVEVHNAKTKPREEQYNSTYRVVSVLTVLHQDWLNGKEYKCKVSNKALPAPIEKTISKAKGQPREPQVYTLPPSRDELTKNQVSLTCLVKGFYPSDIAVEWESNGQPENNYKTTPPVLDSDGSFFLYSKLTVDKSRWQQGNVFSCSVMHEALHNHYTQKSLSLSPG
light: B1 light
notes: sialylated N-glycans; also called 1F11 DM; YGLY23258
